From publication PMC7331980, “Dynamic rotation of the protruding domain enhances the infectivity of norovirus” (PLoS Pathogens, 2020)

B1: VP1 capsid protein of murine norovirus type 1 (MNoV-1), as the capsid of infectious particles (natural protein)
chain: MRMSDGAAPKANGSEASGQDLVPAAVEQAVPIQPVAGAALAAPAAGQINQIDPWIFQNFVQCPLGEFSISPRNTPGEILFDLALGPGLNPYLAHLSAMYTGWVGNMEVQLVLAGNAFTAGKVVVALVPPYFPKGSLTTAQITCFPHVMCDVRTLEPIQLPLLDVRRVLWHATQDQEESMRLVCMLYTPLRTNSPGDESFVVSGRLLSKPAADFNFVYLTPPIERTIYRMVDLPVIQPRLCTHARWPAPVYGLLVDPSLPSNPQWQNGRVHVDGTLLGTTPISGSWVSCFAAEAAYKFQSGTGEVATFTLIEQDGSAYVPGDRAAPLGYPDFSGQLEIEVQTETTKTGDKLKVTTFEMILGPTTNADQAPYQGRVFASVTAAASLDLVDGRVRAVPRSIYGFQDTIPEYNDGLLVPLAPPIGPFLPGEVLLRFRTYMRQIDTADAAAEAIDCALPQEFVSWFASNAFTVQSEALLLRYRNTLTGQLLFECKLYNEGYIALSYSGSGPLTFPTDGIFEVVSWVPRLYQLASVGSLATGRMLKQ
notes: also called MNoV-1 infectious particles; MNoV-1 particles; copies: 180
B2: VP1 capsid protein of murine norovirus type 1 (MNoV-1), as virus-like particles (natural protein, UniProt Q80J94 1-541, looked up)
chain: B1 chain
notes: Major capsid protein VP1 of murine norovirus type 1 (MNoV-1); Formed three types of particles: one large (T = 4) and two small (T = 3, resting and rising P domain conformations), so no single copy number; also called MNoV-1 VLPs; VLPs of MNoV-1; source: baculovirus expression system, purified (CsCl equilibrium ultracentrifugation), stored in DMEM

Experiments:
[1] = target: the molecule itself; experiment: cryo-EM structure; single-particle cryo-EM at 200 kV (JEM2200FS); purified particles suspended in DMEM; icosahedral reconstruction
[2] = target: the molecule itself; experiment: cryo-EM structure; single-particle analysis (RELION) of MNoV-1 VLPs stored in DMEM; three types of particles reconstructed

Row | Protein | binding result [1] | binding result [2]
1 | B1 | binds | –
2 | B2 | – | binds
